Laboratory results from US8173598B2, “Myeloid protein activation of anti-inflammatory and anti-hypoxic pathway” (The Board of Trustees of the University of Illinois, priority 2008, dated 2012).
No end group written: not given here. *: point of attachment. Palmitoyl = CCCCCCCCCCCCCCCC(=O)*

Legend:
[1] = system: Human peripheral neutrophils; assay: Spontaneous oxidative activation of neutrophils (DCFH-DA oxidation); format: cell-based
From the text: (§1) Human peripheral neutrophils were isolated from heparinized blood donated by healthy volunteers according to a protocol approved by the University of Illinois Institutional Review Board. The cells were isolated using a Histopaque™ gradient (Sigma) according to the manufacturer's instructions. Cell viability and identity was confirmed by trypan blue staining. Live cells and neutrophils represented at least 95% of isolated leukocytes.
(§2) The method for the measurement of oxidative activation of neutrophils was based on the ROS-dependent oxidation of DCFH-DA to DCF and was adapted from Ciapetti et al. DCFH-DA crosses the cell membrane and is hydrolyzed by nonspecific esterases to nonfluorescent DCFH. Its oxidation by ROS results in the generation of highly fluorescent DCF [30]. DCFH-DA is therefore a widely accepted probe for the measurement of an overall index of oxidative activity. DCFH-DA was purchased from Calbiochem (Madison, Wis.). The assays were run in clear bottom black 96-well plate. “Edge effects” (a higher fluorescence in edge wells) were avoided by using only center wells. Briefly, 50 μl of Dulbecco's Phosphate Buffered Saline (DPBS) containing DCFH-DA was added to each well with the final concentration of […]. S100 proteins or PKC inhibitors were diluted in the wells. Just before a baseline reading 100,000 neutrophils in 50 μl PBS were placed in each well. 96-well plates were incubated at 37° C. and 5% CO2 and were read at baseline (immediately after cell addition to the plates) and at indicated time points in a Spectra Max Gemini XS fluorescent plate reader. The excitation wavelength was 485 and the reading was done at 530 nm. Wells with no DCFH-DA were used to measure background fluorescence which was subtracted from each reading. Controls with no cells were also analyzed and display no increased fluorescence over time. All assays were conducted in triplicate or quadruplicate wells.
In order to avoid differences between donors, experimental procedures and plate to plate variation, all experimental conditions and statistical analysis were run within one plate inclusive of all positive and negative controls. Single sample t-tests were calculated to test the S100A8, S100A9 and combined proteins in comparison to the control wells with alpha set to ≦0.05 to determine statistical significance. Comparisons between the S100A8, S100A9 and combined proteins were calculated with two sample t-tests using SPSS (SPSS Inc., Chicago, Ill.) with alpha set to ≦0.05 to determine statistical relevance.

[2] = system: Human peripheral neutrophils; assay: PAR-4 activating peptide enhanced neutrophil oxidative metabolism (DCFH-DA oxidation); format: cell-based; settings: P4pal-i1 with PAR-4 activating peptide (FIG. 6A)
From the text: as §1
The method for the measurement of oxidative activation of neutrophils was based on the ROS-dependent oxidation of DCFH-DA to DCF and was adapted from Ciapetti et al. DCFH-DA crosses the cell membrane and is hydrolyzed by nonspecific esterases to nonfluorescent DCFH. […] “Edge effects” (a higher fluorescence in edge wells) were avoided by using only center wells. […] Just before a baseline reading 100,000 neutrophils in 50 μl PBS were placed in each well. 96-well plates were incubated at 37° C. and 5% CO2 and were read at baseline (immediately after cell addition to the plates) and at indicated time points in a Spectra Max Gemini XS fluorescent plate reader. The excitation wavelength was 485 and the reading was done at 530 nm. Wells with no DCFH-DA were used to measure background fluorescence which was subtracted from each reading. Controls with no cells were also analyzed and display no increased fluorescence over time. […]

[3] = system: Human peripheral neutrophils; assay: PMA induced activation of neutrophil oxidative metabolism (DCFH-DA oxidation); format: cell-based; settings: dose dependent
From the text: as §1, §2

[4] = system: Human peripheral neutrophils; assay: LPS stimulated neutrophil oxidative metabolism (DCFH-DA oxidation); format: cell-based; settings: 2.5 to 10 μg/ml of protein; LPS 10 μg/ml
From the text: as §1, §2

thrombin receptors = assay: Calcium flux and thrombin-S100A8/A9 cross-desensitization in Chem-3 cells; format: cell-based; settings: each alone
Protocol: (§3) Screening for S100A8 and S100A9 activity on thrombin receptors including thrombin receptor desensitization were conducted with calcium flux assays in Chem 3 and PAR-4 expressing Chem.-1 cells by Millipore's GPCRProfiler(R) Service (Millipore, St. Charles, Mo.; see website Millipore website on the internet).

PAR-4 = molecular target: T1, PAR-4 (Homo sapiens, UniProt Q96RI0); assay: Calcium flux and desensitization to thrombin in PAR-4 expressing Chem.-1 cells; format: cell-based
T1 construct: host or cells: Chem-1 cells
T1 sequence (Q96RI0 18-385): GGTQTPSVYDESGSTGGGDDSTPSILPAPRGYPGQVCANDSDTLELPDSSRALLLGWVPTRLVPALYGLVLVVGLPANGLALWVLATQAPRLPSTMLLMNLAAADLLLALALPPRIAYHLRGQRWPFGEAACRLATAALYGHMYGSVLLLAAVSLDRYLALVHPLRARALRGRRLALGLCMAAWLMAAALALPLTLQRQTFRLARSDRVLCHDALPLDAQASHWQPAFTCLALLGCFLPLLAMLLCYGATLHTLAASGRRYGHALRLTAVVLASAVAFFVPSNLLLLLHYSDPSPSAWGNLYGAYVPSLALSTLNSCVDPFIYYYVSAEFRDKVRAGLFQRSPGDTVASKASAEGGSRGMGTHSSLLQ
Protocol: as §3

[5] = system: excisional cutaneous wounds; assay: Wound closure in the SKH-1 restraint stress model; format: in vivo, SKH-1 mice
From the text: This protocol was approved by the Committee on Animal Research at the University of Illinois at Chicago. Virus antibody-free, female SKH-1 mice, 5-6 weeks of age, were purchased from Charles River, Inc (Wilmington, Mass.). The animals were allowed to acclimate to the animal facility for at least one week prior to experimental procedures.
(§4) The restraint stress protocol is based on established procedures (Gajendrareddy et al., 2005; Mercado et al., 2002; Padgett et al., 1998). Restraint was initiated 3 days before wounding. Restraint stress (RST) in this model consists of confinement of mice within loosely fitting, well-ventilated 50 ml conical tubes for a period of 12-14 hours during their active nocturnal cycle. Animals were subjected to restraint for an additional five cycles on the day of wounding and for four days thereafter, then stress was discontinued.
For excisional wounds, mice were anesthetized with a single 0.25 ml intraperitoneal injection of Ketaset solution (Aveco, Fort Dodge, Iowa) at a concentration of 7.8 mg/ml, plus Rompum (Haver-Lockhart, Shawnee, Kans.) at 0.44 mg/ml. Each animal received two standardized circular cutaneous wounds with 3.5 mm punch (Miltex Instrument Company), placed just behind the shoulder blades with a biopsy punch.
(§5) For treatment of wounds, S100A8 and mutant ala^42S100A8 were produced, cleaved and purified from a GST fusion construct as previously described (Tugizov et al., 2005) (Sroussi et al., 2006). The endotoxin levels in the recombinant protein preparations were below 1 ng/μg of proteins as measured by the Limulus amoebocyte lysate assay (LAL) (Associates of Cape Cod, Falmouth, Mass.). Solutions of S100 proteins at a concentration of 1 μg/ml were used for those experiments. Introduction of S100A8 protein or control saline vehicle were conducted through local injection intradermally of 25 μl solution in the tissue surrounding the wounds with the help of Micro-Fine IV syringes 28G1/2 (Becton Dickinson, Franklin Lakes, N.J.). Careful wound manipulation ensured no direct disruption of the wound site. An additional 10 μl solution was applied directly to the wounds.
Measurement of Wound Sizes was done as follows. Beginning on the day of wounding (day 0), each animal's wounds were photographed daily until day 5 post-wounding. Photographs of the wound were obtained with a standard-sized dot placed next to the site. Digitized photographs were analyzed using photoplanimetry (Marucha et al., 1998). An investigator blinded to treatment group and day of photograph measured wound size. Wound size was expressed as the percentage of the wound area determined on every post-wounding day, compared with the original wound area.

neutrophils = settings: cited from earlier work
wound bacterial load = format: in vivo, SKH-1 mice
Protocol: as §4, §5
Wound biopsies were performed to evaluate bacterial clearance. Mice were anesthetized as described above. The dorsal area was cleaned with Betadine and a uniform, full-thickness wound located on the dorsum just below the shoulder blades was created with a sterile 6.0-mm punch (Miltex Instrument Company).
Wound infection was assessed with measurement of bacterial load at the wound site by methods adapted from Rojas (Rojas et al., 2002). At day 1 and day 5 post-wounding, mice were euthanized; wounds were collected with a 6-mm punch (see above) and homogenized in 1 ml of sterile PBS. Homogenates were serially diluted (1:10); plated in duplicate on BHI agar, and incubated for 15 h. Bacterial colonies were counted.

[6] = system: recruitment of neutrophils; settings: rat air-pouch; Sroussi et al., 2006; cited from earlier work
[7] = restraint stressed (RST) mice, single local treatment immediately after wounding

C15H31CONH-ATGAPRLPST (Palmitoyl-ATGAPRLPST) [P4pal-i1, reference compound]
spontaneous oxidative metabolic activity ([1]; 2.5 μM P4pal-i1): spontaneous oxidative metabolic activity was reduced | effect on S100A8, S100A9 and calprotectin inhibition of spontaneous oxidative metabolic activity ([1]; P4pal-i1 with S100 proteins (FIG. 6B)): blocked the ability of S100A8, S100A9 and calprotectin (S100A8/A9 in combination) to inhibit the spontaneous oxidative metabolic activity of neutrophils | PAR-4 activating peptide enhancement of oxidative metabolism [2]: blocked the ability of the PAR-4 activating peptide to enhance oxidative metabolism

S100A8: recombinant human S100A8 calcium binding protein, expressed in Escherichia coli as GST fusion, GST tag cleaved
rate of spontaneous oxidation of the DCFH-DA probe ([1]; 2.5 to 10 μg/ml of protein, followed over time, p <0.001 to <0.05): reduced the rate at which spontaneous oxidation of the DCFH-DA probe occurred in a dose dependent manner | oxidative activation of neutrophils ([1]; 5, 2.5 and 1.25 μg/ml, p<0.05): inhibited the oxidative activation of neutrophils | oxidative metabolism (fluorescence emission of DCFH-DA probe) ([1]; 1 h time point, all concentrations tested, P<0.05 compared to control): significantly inhibited oxidative metabolism at all concentrations tested | oxidative activation of neutrophils, protein first boiled ([1]; same concentrations (5, 2.5, 1.25 μg/ml), protein boiled for 5 minutes): did not significantly affect the neutrophils | PMA activation of neutrophils [3]: produced a dose dependent inhibition of PMA activation of neutrophils | LPS stimulation of neutrophil oxidative activity [4]: strongly inhibited LPS stimulation of neutrophil oxidative activity | calcium flux in Chem-3 cells (thrombin receptors): trigger calcium flux in Chem-3 cells in a dose dependent manner | calcium flux in PAR-4 expressing cells (PAR-4; data not shown): activated calcium flux in those cells | desensitization of PAR-4 expressing cells to thrombin activation (PAR-4; previous treatment with different concentrations, then 10 nM thrombin): dose dependently desensitized PAR-4 expressing cells to thrombin activation | wound closure rate in stressed animals [5, 7]: partial acceleration in wound closure rate in stressed animals | neutrophil chemotaxis toward bacterial products (formylated peptides) (neutrophils; in-vitro, Sroussi et al., 2006, 2007): inhibit neutrophil chemotaxis toward bacterial products

B1: ala^42S100A8: oxidation-resistant analog of S100A8 engineered using site-directed mutagenesis (cysteine 42 replaced with alanine) (protein, UniProt P05109 1-93, looked up, variant C42A)
Protein S100-A8: MLTELEKALNSIIDVYHKYSLIKGNFHAVYRDDLKKLLETEAPQYIRKKGADVWFKELDINTDGAVNFQEFLILVIKMGVAAHKKSHEESHKE
wound closure in non-stressed animals with daily treatment ([5]; FWD mice, daily treatment, vs daily saline): significant delay in wound closure starting at day 4 post-wounding | wound closure rates in non-stressed control animals ([5]; FWD mice, single application): normal wound closure rates | wound closure rates with daily injections ([5]; daily administration to the wounds): did not result in the amelioration of wound closure rates | wound closure rate in stressed animals [5, 7]: closure rate similar to the closure rates observed in the non stressed food and water deprived (FWD) group | average wound size in stressed animals vs saline ([5]; restraint stressed (RST) mice, single local treatment immediately after wounding, from day 2 on): significantly smaller than the average wound size in stressed animals treated with saline | wound bacterial loads, stressed mice, day 1 (wound bacterial load; RST mice, day 1, vs saline treated stressed mice): statistically significant reduction in bacterial loads | wound bacterial loads, stressed mice, day 5 (wound bacterial load; RST mice, day 5, vs saline treated stressed mice): statistically significant reduction in bacterial loads | wound bacterial counts, FWD mice, day 1 (wound bacterial load; mouse, in vivo): statistically significant increase in wound bacterial counts | wound bacterial counts, FWD mice, day 5 (wound bacterial load; mouse, in vivo): bacterial counts had reverted to control values | chemo-repulsive activity under oxidative conditions (neutrophils; conditions that inhibit wild type S100A8): retains its chemo-repulsive activity under oxidative conditions | recruitment of neutrophils stimulated by bacterial endotoxins [6]: inhibits the recruitment of neutrophils stimulated by bacterial endotoxins
